Legend:
[1] = molecular target: MSL2-ΔPro/Bas (Drosophila melanogaster) (UniProt P50534); test: EMSA
[2] = molecular target: T1, MSL2 (Drosophila melanogaster, UniProt P50534 1-773); test: EMSA
T1 sequence: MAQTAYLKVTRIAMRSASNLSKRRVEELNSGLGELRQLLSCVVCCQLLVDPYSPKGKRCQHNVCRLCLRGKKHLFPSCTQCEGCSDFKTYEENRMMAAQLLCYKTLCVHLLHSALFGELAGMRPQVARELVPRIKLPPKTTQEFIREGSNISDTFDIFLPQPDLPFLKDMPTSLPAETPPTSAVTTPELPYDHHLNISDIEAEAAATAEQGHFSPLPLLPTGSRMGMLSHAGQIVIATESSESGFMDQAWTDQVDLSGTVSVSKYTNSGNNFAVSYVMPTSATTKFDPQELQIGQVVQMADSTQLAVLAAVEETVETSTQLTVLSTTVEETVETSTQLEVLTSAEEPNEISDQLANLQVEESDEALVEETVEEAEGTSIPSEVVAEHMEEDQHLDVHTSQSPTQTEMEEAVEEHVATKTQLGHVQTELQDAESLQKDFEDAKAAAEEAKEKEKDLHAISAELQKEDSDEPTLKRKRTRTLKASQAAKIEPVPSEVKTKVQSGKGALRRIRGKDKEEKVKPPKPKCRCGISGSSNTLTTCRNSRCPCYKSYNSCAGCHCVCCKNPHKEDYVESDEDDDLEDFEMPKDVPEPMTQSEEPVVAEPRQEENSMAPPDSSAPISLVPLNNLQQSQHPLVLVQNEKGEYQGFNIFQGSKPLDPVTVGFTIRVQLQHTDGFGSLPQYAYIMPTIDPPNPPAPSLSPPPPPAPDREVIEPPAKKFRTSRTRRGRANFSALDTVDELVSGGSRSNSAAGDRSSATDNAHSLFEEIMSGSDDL

[3] = molecular target: T2, MSL2-ΔRING (Drosophila melanogaster, UniProt P50534 1-40+86-773, internal_change); test: EMSA
T2 sequence: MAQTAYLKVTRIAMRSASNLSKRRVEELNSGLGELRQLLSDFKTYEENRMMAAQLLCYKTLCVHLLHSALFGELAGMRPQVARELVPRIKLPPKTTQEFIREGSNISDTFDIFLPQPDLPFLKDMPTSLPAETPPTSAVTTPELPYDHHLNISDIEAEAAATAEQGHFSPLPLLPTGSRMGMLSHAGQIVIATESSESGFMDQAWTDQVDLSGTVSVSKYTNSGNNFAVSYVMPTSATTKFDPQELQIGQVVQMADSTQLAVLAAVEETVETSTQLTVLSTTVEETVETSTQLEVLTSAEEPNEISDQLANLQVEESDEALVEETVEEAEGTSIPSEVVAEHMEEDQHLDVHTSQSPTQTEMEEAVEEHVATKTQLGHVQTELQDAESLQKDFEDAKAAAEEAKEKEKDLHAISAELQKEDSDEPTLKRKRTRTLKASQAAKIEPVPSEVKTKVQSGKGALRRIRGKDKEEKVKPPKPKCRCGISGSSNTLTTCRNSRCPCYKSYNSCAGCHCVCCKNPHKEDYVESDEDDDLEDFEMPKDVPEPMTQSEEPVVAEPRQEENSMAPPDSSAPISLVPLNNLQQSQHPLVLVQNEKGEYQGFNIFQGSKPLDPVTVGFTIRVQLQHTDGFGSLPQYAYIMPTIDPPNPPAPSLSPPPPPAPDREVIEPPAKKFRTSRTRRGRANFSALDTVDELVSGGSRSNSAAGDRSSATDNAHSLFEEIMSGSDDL

[4] = molecular target: T3, MSL2-ΔCXC (Drosophila melanogaster, UniProt P50534 1-519+572-773, internal_change); test: EMSA
T3 sequence: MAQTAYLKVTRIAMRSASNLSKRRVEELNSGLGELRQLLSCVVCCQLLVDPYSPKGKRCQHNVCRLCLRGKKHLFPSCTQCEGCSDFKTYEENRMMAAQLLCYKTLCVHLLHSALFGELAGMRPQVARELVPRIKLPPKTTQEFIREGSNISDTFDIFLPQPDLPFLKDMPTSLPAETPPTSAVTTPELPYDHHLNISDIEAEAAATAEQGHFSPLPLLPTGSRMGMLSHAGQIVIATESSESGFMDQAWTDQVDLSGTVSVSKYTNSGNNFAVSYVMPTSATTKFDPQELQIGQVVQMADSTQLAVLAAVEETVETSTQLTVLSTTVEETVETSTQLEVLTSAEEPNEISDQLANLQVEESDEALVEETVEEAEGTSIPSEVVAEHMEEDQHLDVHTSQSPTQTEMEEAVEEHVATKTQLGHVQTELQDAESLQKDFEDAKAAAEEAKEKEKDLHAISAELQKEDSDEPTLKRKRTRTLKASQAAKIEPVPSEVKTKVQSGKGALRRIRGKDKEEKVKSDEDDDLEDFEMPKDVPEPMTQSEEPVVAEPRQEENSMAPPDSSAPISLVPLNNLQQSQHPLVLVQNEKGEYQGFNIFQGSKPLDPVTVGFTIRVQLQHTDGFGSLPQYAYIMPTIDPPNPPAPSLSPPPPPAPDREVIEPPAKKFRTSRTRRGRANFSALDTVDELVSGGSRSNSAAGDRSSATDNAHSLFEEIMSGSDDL

[5] = molecular target: T1, MSL2; test: competition

“UGCGGCCAUCUCUUUCGUUUUGAUGUUUCUACGCCAUGUG / CACAUGGCGUAGAAACAUCAAAACGAAAGAGAUGGCCGCA [DBF12-L15 dsRNA 40 bp]” was tested, and the Kd [1] was 37 nM.

B1: DBF12-L15 dsRNA 40 bp (dsRNA)
RNA 1: UGCGGCCAUCUCUUUCGUUUUGAUGUUUCUACGCCAUGUG
RNA 2: CACAUGGCGUAGAAACAUCAAAACGAAAGAGAUGGCCGCA
Molecule B1 has a Kd [2] of 21 ± 4 nM, a Kd [3] of 23 ± 5 nM and a Kd [4] of 29 ± 12 nM. For the same molecule, the IC50 [5] was 36 ± 8 nM.
